Values of other authors, collected in publication PMC3097287.
Read-outs that look alike come from different tables or passages of the source.

Experiments:
ANP (Rattus norvegicus) = ANP (Rattus norvegicus) (UniProt P01161)
[1] = molecular target: NPRA ECD (Rattus norvegicus) (UniProt P18910); assay: sedimentation equilibrium
[2] = molecular target: NPRA ECD (Rattus norvegicus) (UniProt P18910); assay: sedimentation equilibrium; remark: listed apart in the source

UniProt P01161, sequence (P01161 123-150): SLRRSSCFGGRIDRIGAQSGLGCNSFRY

Kd (ANP (Rattus norvegicus)): 1 nM
Kd [1]: 500 nM
Kd [2]: 10 nM
Substance: NPRA ECD (from UniProt P18910)
